# Patent US20260092093A1 (TJ BIOPHARMA SHANGHAI, published 2026)
# Where a chain is given by its changes, count along the chain named.
# T1: recombinant hIL-18Rα extracellular domain (human, UniProt Q13478 22-329, biotin label (selection) or fluorescent probe (single-clone FACS), sites not given)
# T1 construct: extracellular domain; also called hIL-18Rα ECD; hIL-18Rα-ECD
# T1 sequence (looked up): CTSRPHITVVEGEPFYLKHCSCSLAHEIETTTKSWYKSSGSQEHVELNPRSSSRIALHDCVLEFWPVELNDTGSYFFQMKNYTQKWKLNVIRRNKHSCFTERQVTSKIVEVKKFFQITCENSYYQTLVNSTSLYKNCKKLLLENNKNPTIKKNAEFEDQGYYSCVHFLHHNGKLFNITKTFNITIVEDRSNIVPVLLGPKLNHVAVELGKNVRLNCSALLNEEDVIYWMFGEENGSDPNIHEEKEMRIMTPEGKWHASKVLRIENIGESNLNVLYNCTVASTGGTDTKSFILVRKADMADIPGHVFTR
# T2: hIL-18Rα ECD-Fc fusion protein (human, UniProt Q13478 22-329)
# T2 construct: extracellular domain; captured on Protein A sensor
# T2 sequence (looked up): T1 sequence (looked up)
# T3: hIL-18BP-hFc (human, UniProt O95998 31-194, limits assumed)
# T3 sequence (looked up): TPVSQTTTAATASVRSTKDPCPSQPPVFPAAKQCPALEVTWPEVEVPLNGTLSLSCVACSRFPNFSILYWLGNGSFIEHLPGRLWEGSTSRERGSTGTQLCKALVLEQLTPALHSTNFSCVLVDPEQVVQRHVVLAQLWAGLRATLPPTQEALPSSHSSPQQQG
# T4: hIL-18 receptor (hIL-18Rα and hIL-18Rβ) (human, UniProt Q13478 19-541; O95256 20-599)
# T4 sequence (looked up) 1: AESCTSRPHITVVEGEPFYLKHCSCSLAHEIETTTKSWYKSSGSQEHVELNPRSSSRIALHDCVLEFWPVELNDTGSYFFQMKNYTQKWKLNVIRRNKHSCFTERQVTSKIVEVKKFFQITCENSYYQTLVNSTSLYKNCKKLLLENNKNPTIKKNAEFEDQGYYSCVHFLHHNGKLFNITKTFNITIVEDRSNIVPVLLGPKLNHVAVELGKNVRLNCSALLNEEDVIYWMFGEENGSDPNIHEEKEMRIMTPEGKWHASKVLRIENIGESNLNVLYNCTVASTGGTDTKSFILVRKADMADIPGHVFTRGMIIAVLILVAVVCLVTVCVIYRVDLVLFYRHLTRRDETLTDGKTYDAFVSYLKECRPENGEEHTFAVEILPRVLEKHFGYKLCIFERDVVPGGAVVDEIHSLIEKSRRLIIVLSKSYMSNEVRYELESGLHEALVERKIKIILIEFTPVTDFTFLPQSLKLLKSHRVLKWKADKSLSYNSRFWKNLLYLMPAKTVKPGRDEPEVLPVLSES
# T4 sequence (looked up) 2: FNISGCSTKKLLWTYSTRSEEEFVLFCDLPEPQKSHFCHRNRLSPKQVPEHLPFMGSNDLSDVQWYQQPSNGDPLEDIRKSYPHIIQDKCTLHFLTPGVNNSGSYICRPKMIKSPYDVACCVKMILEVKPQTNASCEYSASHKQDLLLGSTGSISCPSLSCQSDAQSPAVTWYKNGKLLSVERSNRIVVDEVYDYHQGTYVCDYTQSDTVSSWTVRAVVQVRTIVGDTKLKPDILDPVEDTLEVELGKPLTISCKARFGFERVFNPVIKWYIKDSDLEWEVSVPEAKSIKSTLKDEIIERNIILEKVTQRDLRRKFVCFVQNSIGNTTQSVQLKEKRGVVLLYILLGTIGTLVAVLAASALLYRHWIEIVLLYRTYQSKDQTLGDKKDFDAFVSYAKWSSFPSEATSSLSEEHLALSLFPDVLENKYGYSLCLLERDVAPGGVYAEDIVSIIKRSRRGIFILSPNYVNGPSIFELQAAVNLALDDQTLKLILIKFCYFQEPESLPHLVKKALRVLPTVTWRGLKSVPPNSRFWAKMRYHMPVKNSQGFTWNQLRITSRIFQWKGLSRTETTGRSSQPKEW
# B1: IL-18 variant polypeptide M27 (ligand)
# chain: YFPKLRSKLSVIRNLNDQVLFIDQGNRPLFEDMTDSDCRDNAPRTIFIISMYKHSYTRGMAVTISVKCEKISTLSCENKIISFKEMNPPDVIKDTKSDIIFFQYSVPGHDNKMQFESSSYEGYFLACEKERDLFKLILKKEDELGDRSIMFTVQNED
# B2: IL-18 variant polypeptide M39 (ligand)
# chain: B1 chain with H54W, Y56P, T57G, Y104L
# B3: IL-18 variant polypeptide M29 (ligand)
# chain: B1 chain with R6M, H54F, Y56D, T57R, V91P, Y104R
# B4: IL-18 variant polypeptide M37 (ligand)
# chain: B1 chain with R6G, H54Q, Y56V, T57W, V91N, Y104R
# B5: IL-18 variant polypeptide M40 (ligand)
# chain: B1 chain with P3D, R6K, H54P, Y56S, T57W, V91W, Y104R
# B6: IL-18 variant polypeptide M33 (ligand)
# chain: B1 chain with P3E, R6H, H54R, Y56T, T57H, V91N, Y104R
# B7: IL-18 variant polypeptide M35 (ligand)
# chain: B1 chain with H54G, Y56G, T57A, V91G, Y104R
# B8: IL-18 variant polypeptide M38 (ligand)
# chain: B1 chain with R6S, H54W, Y56G, T57A, Y104I
# B9: IL-18 variant polypeptide M28 (ligand)
# chain: B1 chain with R6A, H54W, Y56G, T57G
# B10: IL-18 variant polypeptide M30 (ligand)
# chain: B1 chain with R6L, Y56T, T57V, V91S, Y104R
# B11: IL-18 variant polypeptide M31 (ligand)
# chain: B1 chain with Y56I, T57H, V91I
# B12: IL-18 variant polypeptide M32 (ligand)
# chain: B1 chain with R6G, H54S, Y56S, T57R, V91N, Y104R
# B13: IL-18 variant polypeptide M34 (ligand)
# chain: B1 chain with Y56R, T57N, Y104E
# B14: IL-18 variant polypeptide M27 (ligand)
# chain: B1 chain
# B15: IL-18 variant polypeptide M28 (ligand)
# chain: B1 chain with R6A, H54W, Y56G, T57G
# B16: IL-18 variant polypeptide M31 (ligand)
# chain: B1 chain with Y56I, T57H, V91I
# B17: IL-18 variant polypeptide M30 (ligand)
# chain: B1 chain with R6L, Y56T, T57V, V91S, Y104R
# B18: IL-18 variant polypeptide M40 (ligand)
# chain: B1 chain with P3D, R6K, H54P, Y56S, T57W, V91W, Y104R
# B19: IL-18 variant polypeptide M37 (ligand)
# chain: B1 chain with R6G, H54Q, Y56V, T57W, V91N, Y104R
# B20: IL-18 variant polypeptide M38 (ligand)
# chain: B1 chain with R6S, H54W, Y56G, T57A, Y104I
# B21: IL-18 variant polypeptide LM3 (ligand)
# chain: B1 chain with V11I, H54G, Y56G, T57A, V91G, Y104R
# B22: IL-18 variant polypeptide LM2 (ligand)
# chain: B1 chain with H54L, Y56G, T57S, Y104R
# B23: IL-18 variant polypeptide M34 (ligand)
# chain: B1 chain with Y56R, T57N, Y104E
# B24: IL-18 variant polypeptide M39 (ligand)
# chain: B1 chain with H54W, Y56P, T57G, Y104L
# B25: IL-18 variant polypeptide LM1 (ligand)
# chain: B1 chain with R6K, H54G, Y56G, T57A, V91N, Y104R
# Target: T1, recombinant hIL-18Rα extracellular …
# Assay: single-clone FACS, yeast display, 10 nM labelled hIL-18Rα ECD
# Procedure, shortened: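 Yeast clones displaying IL-18 variants (screening rounds 4 and 5), at equal density, incubated with 10 nM fluorescently labelled hIL-18Rα ECD, then washed. Fraction of fluorescence-positive binding cells per clone measured by flow cytometry.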
row,Binder,% of fluorescence positive cells [%]
1,B1,77.7
2,B2,76.5
3,B3,0.18
4,B4,95.4
5,B5,39.6
6,B6,0.17
7,B7,92.9
8,B8,79.5
9,B9,83.4
10,B10,0.46
11,B11,69
12,B12,4.21
13,B13,87.5

# Target: T2, hIL-18Rα ECD-Fc fusion protein
# Assay: BLI (Octet RED96), hIL-18Rα ECD-Fc on Protein A sensor
# Procedure: The affinities of IL-18 variant polypeptides for hIL-18Rα were assessed by Biolayer Interferometry (BLI) on Octet RED96 using Protein A sensor coated with hIL-18Rα ECD-Fc fusion protein, and WT hIL-18 was used as a control.
Binder,Kd [nM],Response (nm),koff [s⁻¹],kon [M⁻¹ s⁻¹]
B1,45.9,0.0836,0.00756,165000
B2,20.6,0.0605,0.0221,1.07e+06
B3,83.9,0.0323,0.0612,730000
B4,21.8,0.222,0.00883,404000
B5,32.6,0.161,0.0121,371000
B6,595,0.0257,0.0957,161000
B7,34.1,0.129,0.0156,456000
B8,120,0.0307,0.0334,278000
B9,30.4,0.178,0.00966,318000
B10,30.2,0.0275,0.0389,1.29e+06
B11,54.1,0.0947,0.0189,349000
B12,17.3,0.0381,0.0234,1.36e+06
B13,32.8,0.084,0.0166,505000

# Target: T3, hIL-18BP-hFc
# Assay: cell-based or functional assay
Binder,"EC50 (nM) in the Presence of 1 µg/mL hIL-18BP-hFc, hIL-18 reporter assay [nM]","EC50 Fold Change (+BP/-BP), hIL-18 reporter assay [fold]"
B14,0.26,1.44
B15,0.042,2.33
B16,0.18,0.72
B17,1.7,0.68
B18,0.16,1.33
B19,0.33,2.36
B20,1.2,2.11
B21,0.069,1.33
B22,0.055,0.5
B23,0.9,1.27
B24,0.44,1.47
B25,0.11,1.45

# Target: T4, hIL-18 receptor (hIL-18Rα and hIL-18Rβ)
# Assay: cell-based or functional assay
row,Binder,"EC50 (nM), hIL-18 reporter assay [nM]"
1,B14,0.18
2,B15,0.018
3,B16,0.25
4,B17,2.5
5,B18,0.12
6,B19,0.14
7,B20,0.57
8,B21,0.052
9,B22,0.11
10,B23,0.71
11,B24,0.3
12,B25,0.076
